Experimental data: US20130064823A1 (Novartis, published 2013)

T1: LRP6-Fc (R&D Systems, catalog No: 1505-LR) (human, UniProt O75581 20-1370)
T1 construct: also called 360 KD homodimer antigen LRP6-Fc
T1 sequence (looked up): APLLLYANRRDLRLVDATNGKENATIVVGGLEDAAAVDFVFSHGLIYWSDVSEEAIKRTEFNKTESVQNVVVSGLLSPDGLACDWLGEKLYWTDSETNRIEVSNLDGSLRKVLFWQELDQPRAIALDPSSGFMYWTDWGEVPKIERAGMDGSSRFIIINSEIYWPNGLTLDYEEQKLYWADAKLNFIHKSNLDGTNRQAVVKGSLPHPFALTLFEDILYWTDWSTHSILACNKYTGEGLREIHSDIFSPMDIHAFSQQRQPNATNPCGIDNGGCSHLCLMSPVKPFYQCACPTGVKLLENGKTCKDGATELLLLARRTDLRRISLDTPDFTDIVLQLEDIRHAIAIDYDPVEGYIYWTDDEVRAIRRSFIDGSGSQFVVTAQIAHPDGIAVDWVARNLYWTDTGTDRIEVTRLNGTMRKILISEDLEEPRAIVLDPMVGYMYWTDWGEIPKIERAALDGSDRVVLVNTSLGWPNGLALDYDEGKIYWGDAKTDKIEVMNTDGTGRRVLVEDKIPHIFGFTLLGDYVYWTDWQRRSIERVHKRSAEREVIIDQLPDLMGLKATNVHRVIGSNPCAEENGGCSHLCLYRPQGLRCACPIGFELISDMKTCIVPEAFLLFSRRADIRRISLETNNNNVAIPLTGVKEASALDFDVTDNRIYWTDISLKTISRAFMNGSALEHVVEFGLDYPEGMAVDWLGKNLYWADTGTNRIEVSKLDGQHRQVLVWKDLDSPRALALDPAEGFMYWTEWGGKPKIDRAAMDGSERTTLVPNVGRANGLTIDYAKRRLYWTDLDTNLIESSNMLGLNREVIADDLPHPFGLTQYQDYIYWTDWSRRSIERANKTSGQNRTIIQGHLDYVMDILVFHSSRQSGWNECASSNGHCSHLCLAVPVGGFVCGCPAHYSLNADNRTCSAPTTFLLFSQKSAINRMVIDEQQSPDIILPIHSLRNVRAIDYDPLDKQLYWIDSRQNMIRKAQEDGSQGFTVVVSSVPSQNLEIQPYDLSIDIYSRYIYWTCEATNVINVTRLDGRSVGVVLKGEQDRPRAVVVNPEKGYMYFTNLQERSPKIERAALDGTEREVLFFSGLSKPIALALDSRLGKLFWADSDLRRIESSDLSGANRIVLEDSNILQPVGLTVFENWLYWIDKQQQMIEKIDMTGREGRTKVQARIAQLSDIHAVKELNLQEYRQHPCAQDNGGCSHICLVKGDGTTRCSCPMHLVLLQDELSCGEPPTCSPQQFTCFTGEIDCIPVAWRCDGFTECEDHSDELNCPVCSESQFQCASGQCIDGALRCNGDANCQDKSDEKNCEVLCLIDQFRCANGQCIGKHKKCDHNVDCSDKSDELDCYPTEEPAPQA


Experiments:
[1] = target: T1, LRP6-Fc (R&D Systems, catalog No: …); assay: ELISA on plates coated with LRP6-Fc
Protocol: Binding EC₅₀ of scFvs against LRP6 protein was measured by ELISA. Maxisorp plate was coated with LRP6-Fc (R&D Sysytems, catalog No: 1505-LR) at 3 μg/ml at 4° C. overnight. The plate was blocked with 50 μl of 2% BSA for one hour, and washed five times with the wash solution. The samples were diluted with 1% BSA accordingly. The plate was incubated at RT for 1 h, and washed for 3 times. Detection was done by adding 50 μl pentallis-HRP (Qiagen Mat. No. 1014992) at 1:2000 dilution in 1% BSA, incubated at RT for 1 h, and washed 3 times. 50 μl of substrate reagent A plus B (R&D systems) was added, then incubated for 5-20 min depending on the color. The reaction was stopped by adding 25 μl of the stop solution, followed by plate reading at 450 nm.
Affinity analysis ELISA EC₅₀ was carried out for both scFv08168 and scFv06475 wild type and variants.

human LRP6 = human LRP6 (human, UniProt O75581 20-1613); assay: cell-based or functional assay
cynomolgus LRP6 = cynomolgus LRP6 (cynomolgus, UniProt A0A2K5VCG3 20-1602); assay: FACS on HEK293T/17 cells transiently transfected with cynomolgus LRP6 (Example 3); Fab or IgG format not stated on the sheet
cynomolgus LRP6, sequence (A0A2K5VCG3 entry or part of it): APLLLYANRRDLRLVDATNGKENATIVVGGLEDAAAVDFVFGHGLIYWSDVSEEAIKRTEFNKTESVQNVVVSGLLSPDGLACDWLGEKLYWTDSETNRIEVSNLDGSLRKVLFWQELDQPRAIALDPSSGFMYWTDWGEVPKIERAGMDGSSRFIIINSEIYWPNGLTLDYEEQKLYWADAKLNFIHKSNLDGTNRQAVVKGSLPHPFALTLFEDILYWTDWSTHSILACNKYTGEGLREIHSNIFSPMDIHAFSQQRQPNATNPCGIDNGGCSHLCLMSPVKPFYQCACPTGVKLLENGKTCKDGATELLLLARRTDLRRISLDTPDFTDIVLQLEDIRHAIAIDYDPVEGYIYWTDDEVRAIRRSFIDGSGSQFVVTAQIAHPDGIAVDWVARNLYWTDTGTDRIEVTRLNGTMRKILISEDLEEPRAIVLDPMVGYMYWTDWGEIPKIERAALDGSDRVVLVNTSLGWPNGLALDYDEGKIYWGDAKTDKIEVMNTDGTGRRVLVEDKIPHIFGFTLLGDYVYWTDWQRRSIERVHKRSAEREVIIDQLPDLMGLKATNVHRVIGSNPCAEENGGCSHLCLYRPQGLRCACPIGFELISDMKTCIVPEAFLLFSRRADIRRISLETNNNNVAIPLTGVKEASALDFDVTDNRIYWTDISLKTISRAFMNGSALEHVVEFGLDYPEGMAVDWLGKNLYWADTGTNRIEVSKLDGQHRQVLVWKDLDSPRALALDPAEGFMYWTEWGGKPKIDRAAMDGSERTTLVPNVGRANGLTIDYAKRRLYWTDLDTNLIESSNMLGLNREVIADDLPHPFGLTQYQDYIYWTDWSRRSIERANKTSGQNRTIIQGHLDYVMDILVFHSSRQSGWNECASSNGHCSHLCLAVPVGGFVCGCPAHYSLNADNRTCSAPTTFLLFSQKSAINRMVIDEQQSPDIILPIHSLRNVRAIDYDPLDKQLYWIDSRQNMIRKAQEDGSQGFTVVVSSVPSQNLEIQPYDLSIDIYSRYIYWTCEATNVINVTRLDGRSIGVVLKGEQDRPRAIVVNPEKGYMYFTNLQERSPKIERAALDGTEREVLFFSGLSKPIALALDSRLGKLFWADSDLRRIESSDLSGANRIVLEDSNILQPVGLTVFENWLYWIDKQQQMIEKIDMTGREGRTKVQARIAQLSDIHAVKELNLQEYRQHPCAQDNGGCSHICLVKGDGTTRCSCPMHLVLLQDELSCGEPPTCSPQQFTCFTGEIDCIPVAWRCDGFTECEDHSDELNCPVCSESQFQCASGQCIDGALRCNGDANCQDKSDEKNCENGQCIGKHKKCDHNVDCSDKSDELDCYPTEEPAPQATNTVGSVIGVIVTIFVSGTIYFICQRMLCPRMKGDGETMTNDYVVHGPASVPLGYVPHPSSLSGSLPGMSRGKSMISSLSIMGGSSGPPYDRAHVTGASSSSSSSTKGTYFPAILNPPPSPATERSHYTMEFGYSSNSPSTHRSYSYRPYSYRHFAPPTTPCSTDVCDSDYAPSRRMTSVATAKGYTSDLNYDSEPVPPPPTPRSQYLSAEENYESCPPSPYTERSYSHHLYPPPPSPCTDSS

EC50 [1] [nM]	IC50 by STF assay for Wnt1 inhibition (human LRP6) [nM]	EC50 (cynomolgus LRP6) [nM]	Binder
0.91	–	–	scFv08168-D8 (scFv, V domains shown) VH: QVQLVESGGGLVQPGGSLRLSCAASGFTFSDYVMNWVRQAPGKGLEWVSGISWSGVNTHYADSVKGRFTISRDNSKNTLYLQMNSLRAEDTAVYYCARLGATANNIRYKFMDVWGQGTLVTVSS VL: DIELTQPPSVSVAPGQTARISCSGDSLRNKVYWYQQKPGQAPVLLIYKNNRPSGIPERFSGSNSGNTATLTISGTQAEDEADYYCQSYDGQKSLVFGGGTKLTVL
1.24	0.74	–	scFv08168-D6 (scFv, V domains shown) VH: QVQLVESGGGLVQPGGSLRLSCAASGFTFSDYVMNWVRQAPGKGLEWISGISWSGVNTHYADSVKGRFTISRDNSKNTLYLQMNSLRAEDTAVYYCARLGATANNIRYKFMDVWGQGTLVTVSS VL: DIELTQPPSVSVAPGQTARISCSGDSLRNKVYWYQQKPGQAPVLVIYKNNRPSGIPERFSGSNSGNTATLTISGTQAEDEADYYCQSYDGQKSLVFGGGTKLTVL
–	–	0.2	MOR08193 Fab (Fab, V domains shown, also called Propeller 3 anti-LRP6 Fab MOR08193) VH: QVQLKESGPALVKPTQTLTLTCTFSGFSLSNRGGGVGWIRQPPGKALEWLAWIDWDDDKSYSTSLKTRLTISKDTSKNQVVLTMTNMDPVDTATYYCARMHLPLVFDSWGQGTLVTVSS VL: DIVLTQSPATLSLSPGERATLSCRASQFIGSRYLAWYQQKPGQAPRLLIYGASNRATGVPARFSGSGSGTDFTLTISSLEPEDFAVYYCQQYWSIPITFGQGTKVEIKR
1.68	–	–	scFv08168-D2 (scFv) QVQLVESGGGLVQPGGSLRLSCAASGFTFSDYVFNWVRQAPGKGLEWVAGISWSGVNTHYADSVKGRFTISRDNSKNTLYLQMNSLRAEDTAVYYCARLGATANNIRYKFMDVWGQGTLVTVSSGGGGSGGGGSGGGGSDIELTQPPSVSVAPGQTARISCSGDSLRNKVYWYQQKPGQAPVLVIYKNNRPSGIPERFSGSNSGNTATLTISGTQAEDEADYYCQSYDGQKSLVFGGGTKLTVL
–	–	0.3	MOR08545 Fab (Fab, V domains shown, also called Propeller 1 anti-LRP6 Fab MOR08545) VH: QVQLVESGGGLVQPGGSLRLSCAASGFTFSVNGMHWVRQAPGKGLEWVSVIDGMGHTYYADSVKGRFTISRDNSKNTLYLQMNSLRAEDTAVYYCARYDYIKYGAFDPWGQGTLVTVSS VL: DIELTQPPSVSVAPGQTARISCSGDNIGSKYVHWYQQKPGQAPVLVIYGDSNRPSGIPERFSGSNSGNTATLTISGTQAEDEADYYCTRTSTPISGVFGGGTKLTVLG
–	–	0.46	MOR06706 Fab (Fab, V domains shown, also called Propeller 1 anti-LRP6 Fab MOR06706) VH: QVQLVESGGGLVQPGGSLRLSCAASGFTFSDYAIHWVRQAPGKGLEWVSGISYSGSSTHYADSVKGRFTISRDNSKNTLYLQMNSLRAEDTAVYYCARGSHGNIMAKRYFDFWGQGTLVTVSS VL: DIELTQPPSVSVAPGQTARISCSGDNIRKKYVYWYQQKPGQAPVLVIYEDSKRPSGIPERFSGSNSGNTATLTISGTQAEDEADYYCSTADSGINNGVFGGGTKLTVL

Further lines, the binder ahead of its results:

Binder	EC50 [1] [nM]	IC50 by STF assay for Wnt1 inhibition (human LRP6) [nM]	EC50 (cynomolgus LRP6) [nM]
scFv08168-D7 (scFv, V domains shown) VH: QVQLVESGGGLVQPGGSLRLSCAASGFTFSDYVMNWVRQAPGKGLEWVSGISWSGVNTHYADSVKGRFTISRDNSKNTLYLQMNSLRAEDTAVYYCARLGATANNIRYKFMDVWGQGTLVTVSS VL: DIELTQPPSVSVAPGQTARITCSGDSLRNKVYWYQQKPGQAPVLVIYKNNRPSGIPERFSGSNSGNTATLTISGTQAEDEADYYCQSYDGQKSLVFGGGTKLTVL	1.15	4.81	–
MOR08168 Fab (Fab, V domains shown, HuCAL Fab expressed in E. coli; also called Propeller 1 anti-LRP6 Fab MOR08168) VH: QVQLVESGGGLVQPGGSLRLSCAASGFTFSDYVINWVRQAPGKGLEWVSGISWSGVNTHYADSVKGRFTISRDNSKNTLYLQMNSLRAEDTAVYYCARLGATANNIRYKFMDVWGQGTLVTVSS VL: DIELTQPPSVSVAPGQTARISCSGDSLRNKVYWYQQKPGQAPVLVIYKNNRPSGIPERFSGSNSGNTATLTISGTQAEDEADYYCQSYDGQKSLVFGGGTKLTVL	–	–	0.88
scFv08168-D9 (scFv, V domains shown) VH: QVQLVESGGGLVQPGGSLRLSCAASGFTFSDYVMNWVRQAPGKGLEWVSGISWSGVNTHYADSVKGRFTISRDNSKNTLYLQMNSLRAEDTAVYYCARLGATANNIRYKFMDVWGQGTLVTVSS VL: DIELTQPPSVSVAPGQTARISCSGDSLRNKVYWYQQKPGQAPVLVIYKNNRPSGIPERFSVSNSGNTATLTISGTQAEDEADYYCQSYDGQKSLVFGGGTKLTVL	1.26	11.1	–
MOR08473 Fab (Fab, V domains shown, also called Propeller 3 anti-LRP6 Fab MOR08473) VH: QVQLVESGGGLVQPGGSLRLSCAASGFTFSSYGMSWVRQAPGKGLEWVSNISNDGHYTYYADSVKGRFTISRDNSKNTLYLQMNSLRAEDTAVYYCARFQASYLDIMDYWGQGTLVTVSS VL: DIELTQPPSVSVAPGQSITISCSGDNIGSKYVHWYQQKPGQAPVLVIYNDSNRPSGIPERFSGSNSGNTATLTISGTQAEDEADYYCQAWGDNGTRVFGGGTKLTVLG	–	–	0.52
scFv08168-D5 (scFv) QVQLVESGGGLVQPGGSLRLSCAASGFTFSDYVMNWVRQAPGKGLEWVSGISWSGVNTYYADSVKGRFTISRDNSKNTLYLQMNSLRAEDTAVYYCARLGATANNIRYKFMDVWGQGTLVTVSSGGGGSGGGGSGGGGSDIELTQPPSVSVAPGQTARISCSGDSLRNKVYWYQQKPGQAPVLVIYKNNRPSGIPERFSGSNSGNTATLTISGTQAEDEADYYCQSYDGQKSLVFGGGTKLTVL	1.22	–	–
scFv08168-D4 (scFv) QVQLVESGGGLVQPGGSLRLSCAASGFTFSDYVMNWVRQAPGKGLEWVSSISWSGVNTHYADSVKGRFTISRDNSKNTLYLQMNSLRAEDTAVYYCARLGATANNIRYKFMDVWGQGTLVTVSSGGGGSGGGGSGGGGSDIELTQPPSVSVAPGQTARISCSGDSLRNKVYWYQQKPGQAPVLVIYKNNRPSGIPERFSGSNSGNTATLTISGTQAEDEADYYCQSYDGQKSLVFGGGTKLTVL	1.47	–	–
